Experimental data published in PMC6449940, “The Cdc42 effectors Gic1 and Gic2 regulate polarized post-Golgi secretion” (Cell & Bioscience, 2019).

Tests used:
[1] = molecular target: T1, His6-Cdc42 (S. cerevisiae, UniProt P19073 1-191); test: pull-down; GST-Gic2N (a.a.1–155) on glutathione Sepharose (20 μg), His6-Cdc42 or mutant (10 μg) in the presence of GTPγS; bound protein detected with anti-Hisx6 antibody; details: both partners purified
T1 construct: Cdc42, small GTPase, S. cerevisiae; also called Hisx6-Cdc42; Cdc42 wild type; source: bacteria, purified (Hisx6 fusion)
T1 sequence (P19073 whole entry, the tested form may be a part): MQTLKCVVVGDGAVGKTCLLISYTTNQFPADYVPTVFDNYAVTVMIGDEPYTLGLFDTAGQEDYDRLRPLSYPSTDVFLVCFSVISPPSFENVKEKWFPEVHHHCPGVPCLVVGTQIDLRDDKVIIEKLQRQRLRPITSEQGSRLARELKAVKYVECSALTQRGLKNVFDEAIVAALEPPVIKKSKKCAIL

[2] = molecular target: T2, His6-cdc42-302 (V36A F37A) (S. cerevisiae, UniProt P19073 1-191, V36A | F37A); test: as above; details: both partners purified
T2 construct: Cdc42, S. cerevisiae, with V36A and F37A; source: bacteria, purified (Hisx6 fusion)
T2 sequence (P19073 whole entry V36A/F37A, the tested form may be a part): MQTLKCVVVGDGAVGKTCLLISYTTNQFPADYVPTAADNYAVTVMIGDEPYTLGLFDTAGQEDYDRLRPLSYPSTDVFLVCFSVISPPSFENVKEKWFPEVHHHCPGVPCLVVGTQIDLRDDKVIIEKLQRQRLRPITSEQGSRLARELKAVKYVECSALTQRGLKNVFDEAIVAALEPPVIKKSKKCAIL

- binding result [1]: binds
- binding result [2]: binds
B1: GST-tagged Gic2N (amino acids 1–155) (domain or fragment, S. cerevisiae (budding yeast), UniProt Q06648 1-155, looked up)
chain: MTSASITNTGNETMNLPQMRSIWLDEDEEAEKLYGLQAQQFMGSDDEENLGITFINSDKPVLSNKKNIELPPLSPNSHPSCHHRRSNSNSAKSKESSSSSSSANKTNHKKVFLKLNLLKKKLLGAQPDIRGKGISTPFDFQHISHADTRNGFQDE
notes: also called GST-Gic2N; GST-Gic2; source: GST fusion protein, purified and conjugated to glutathione Sepharose
